Results: the supplement of paper PMC9732359
± gives the uncertainty stated by the source.

Assay: protein stability index of a GFP-peptide fusion (yeast GPS) (PSI 1-4); higher = more stable; sorted into four equal gates, so the index is relative within each strain
Procedure, shortened: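 For each peptide, the protein stability index sums the read frequency in every gate after multiplying it by the gate number. Read frequencies came from plasmids that were PCR-amplified from each gate and Illumina-sequenced, with reads assigned to strains by barcodes. The gates were four equal bins of GFP/Cherry fluorescence ratio applied to mid-log yeast in leucine-free medium carrying a pooled library of tiled 17-residue yeast protein peptides fused downstream of GFP on a Cherry-expressing plasmid.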

Sequence | protein stability index (doa10∆) | protein stability index (pdr5∆) | protein stability index (san1∆) | protein stability index (ubr1∆)
IVGPDLAVLALVIVKKG [RPS6A] | 1.26 ± 0.035 | 1.34 ± 0.048 | 1.19 ± 0.093 | 1.36 ± 0.043
IVPIFQLISAVLVSMGS [YJL039C/NUP192] | – | 2.39 ± 0.28 | – | 1.22 ± 0.091
IVPLTEGDIQVLKSYGA [RPT1] | 3.14 ± 0.09 | 3.14 ± 0.11 | 2.77 ± 0.062 | 2.99 ± 0.052
IVPVISTIENVLFYIGR [COB] | 1.85 ± 0.059 | 1.68 ± 0.042 | 2.4 ± 0.058 | 2.34 ± 0.056
IVQELLDKNLIKLVKQN [RPC34] | 1.97 ± 0.057 | 1.99 ± 0.058 | 2.62 ± 0.068 | 2.57 ± 0.052
IVSFIVNCFHEDTELYQ [YJL039C/NUP192] | 1.62 ± 0.051 | 1.71 ± 0.051 | 2.22 ± 0.055 | 2.46 ± 0.036
IYAGFGRDTTDYLKNII [RPN2] | – | 2.75 ± 0.21 | 3.22 ± 0.16 | –
IYEKLKNYLKNYILNFK [CDC53] | 2.44 ± 0.063 | 1.32 ± 0.055 | 1.17 ± 0.13 | 1.14 ± 0.061
IYEVDITVHAPLLPIVE [SNU114] | 2.32 ± 0.056 | 2.29 ± 0.056 | 2.19 ± 0.088 | 2.52 ± 0.043
IYKRGQAGVTKASVTIV [SMC2] | 1.61 ± 0.093 | 1.73 ± 0.083 | 1.78 ± 0.13 | 1.16 ± 0.11
IYLLFQSSGKLKEYLDL [YDL116W/NUP84] | 2.51 ± 0.051 | 2.44 ± 0.052 | 2.52 ± 0.048 | 2.6 ± 0.038
IYSPLHSFIKMLQMKGK [SIR2] | 2.1 ± 0.064 | 1.79 ± 0.058 | 1.91 ± 0.14 | 1.88 ± 0.051
KADDDSVTIISAGNDKM [ASC1] | 3.24 ± 0.091 | 2.92 ± 0.11 | 3.16 ± 0.04 | 3.04 ± 0.058
KAEIPPEYAKVGDFLLQ [SIN4] | 1.52 ± 0.079 | 1.93 ± 0.06 | 1.7 ± 0.093 | 1.46 ± 0.061
KAKAQAQAQAQAQAQVY [PGD1] | 2.96 ± 0.11 | 3.26 ± 0.088 | 3.04 ± 0.083 | 3 ± 0.066
KAKFTSLAVRSLQDRSS [YCS4] | 2.15 ± 0.042 | 2.3 ± 0.05 | 2.13 ± 0.054 | 2.24 ± 0.036
KALPMLEQVEFEKNTIL [MED4] | 3.02 ± 0.07 | 3.04 ± 0.083 | 2.65 ± 0.064 | 3.08 ± 0.083
KANIFQVIKNEVCAKMP [SSN2] | 2.7 ± 0.14 | 2.27 ± 0.084 | 1.4 ± 0.21 | 1.84 ± 0.09
KAPKIQRLVTPQRLQRK [RPS6A] | 2.77 ± 0.06 | 2.95 ± 0.049 | 2.91 ± 0.042 | 2.94 ± 0.039
KARTNLHQHVVLKCLKS [RPC34] | 2.91 ± 0.19 | 2.64 ± 0.16 | 2.33 ± 0.14 | 2.23 ± 0.23
KASLLLHVLVAHKLKKS [FAS2] | 1.38 ± 0.055 | 1.27 ± 0.043 | 1.12 ± 0.088 | 1.25 ± 0.038
KATAAKKAVVKGTNGKK [RPL25] | 3.3 ± 0.15 | 2.05 ± 0.1 | 1.53 ± 0.17 | 1.29 ± 0.22
KCFDDIEPHIFDQLIEW [YCG1] | 3.2 ± 0.075 | 3.1 ± 0.081 | 3.31 ± 0.046 | 3.3 ± 0.046
KCIKYSEKLITKYFEPT [ECM29] | 2.63 ± 0.12 | 3.03 ± 0.13 | 2.84 ± 0.05 | 2.68 ± 0.074
KCIPKKGTVFQFEIPIS [POP4] | 1.44 ± 0.16 | 1.68 ± 0.087 | 1.49 ± 0.29 | 1.17 ± 0.052
KCSTRGLSTDHTTQIVN [YML103C/NUP188] | 2.9 ± 0.079 | 2.9 ± 0.085 | 2.79 ± 0.07 | 3.01 ± 0.054
